Reference: article PMC7145319 (2019)
Blank lines part the entries; values can stand above or below the binder they belong to.

Biological target: T1, MOG35-55 peptide on I-Ab (mouse)
T1 peptide: GWYRSPFSRVV
Experiment: activation reporter or marker

binding result: recognises
B1: EAE2-CD4 (TCR)
alpha TRAV12-1 TRAJ23 CDR3: CALRNYNQGKLIF
beta TRBV16 TRBJ1-4 CDR3: CASSLDQGWDERLFF

binding result: recognises
B2: EAE3-CD4 (TCR)
alpha TRAV14D-1 TRAJ43 CDR3: CAASGANNNNAPRF
beta TRBV3 TRBJ2-5 CDR3: CASSLEGHQDTQYF
